Source: patent publication US20120264685A1 (priority 2009, published 2012)
Where no end group is shown, it is not given here. [ ]: non-standard residue; d: D form. Bip(2'-Et-4'-OMe) = CCc1cc(OC)ccc1-c1ccc(C[C@H](N)C(=O)O)cc1; αMePhe(2,6-F2) = C[C@](N)(Cc1c(F)cccc1F)C(=O)O; αMePhe(2-F) = C[C@](N)(Cc1ccccc1F)C(=O)O; αMeBip(OMe) = alpha-methylated Bip(OMe); hhPhe = N[C@@H](CCCc1ccccc1)C(=O)O; αMeD = C[C@](N)(CC(=O)O)C(=O)O; αMeP = C[C@@]1(C(=O)O)CCCN1; αMeAPPA = not defined here; αMeS = C[C@](N)(CO)C(=O)O; Aib = CC(C)(N)C(=O)O

B1: Seq. ID. No. 88 (peptide)
peptide: VHAEGTFTSD[Bip(2'-Et-4'-OMe)][αMeAPPA]
modifications: not fully specified (C-terminus); printed as VHAEGTFTSD-Bip(OMe)-(αMe-APPA); reading uncertain
B2: Seq. ID. No. 84 (peptide)
peptide: VH[αMeP]QGTFTSD[Bip(2'-Et-4'-OMe)][αMeAPPA]
modifications: not fully specified (C-terminus); printed as VH-(αMe-Pro)-QGTFTSD-Bip(OMe)-(αMe-APPA); reading uncertain
B3: Seq. ID. No. 17 (peptide)
peptide: VHSQGT[αMePhe(2-F)]TSD[αMeBip(OMe)][hhPhe]
modifications: not fully specified (C-terminus); printed as VHSQGT-(αMe-2FPhe)-TSD-(αMe-Bip(OMe))-(APPA)
B4: Seq. ID. No. 19 (peptide)
peptide: VH[Aib]QGT[αMePhe(2-F)]TSD[αMeBip(OMe)][hhPhe]
modifications: not fully specified (C-terminus); printed as VH-Aib-QGT-(αMe-2FPhe)-TSD-(αMe-Bip(OMe))-(APPA)
B5: Seq. ID. No. 13 (peptide)
peptide: VH[Aib]EGTFTSD[αMeBip(OMe)][hhPhe]
modifications: not fully specified (C-terminus); printed as VH-Aib-EGTFTSD-(αMe-Bip(OMe))-(APPA)

Legend:
human GLP-1 receptor = human GLP-1 receptor (human, UniProt P43220 24-463); experiment: cell-based or functional assay
human glucagon receptor = human glucagon receptor (human, UniProt P47871 26-477); experiment: cell-based or functional assay
human glucagon receptor, sequence (P47871 26-477): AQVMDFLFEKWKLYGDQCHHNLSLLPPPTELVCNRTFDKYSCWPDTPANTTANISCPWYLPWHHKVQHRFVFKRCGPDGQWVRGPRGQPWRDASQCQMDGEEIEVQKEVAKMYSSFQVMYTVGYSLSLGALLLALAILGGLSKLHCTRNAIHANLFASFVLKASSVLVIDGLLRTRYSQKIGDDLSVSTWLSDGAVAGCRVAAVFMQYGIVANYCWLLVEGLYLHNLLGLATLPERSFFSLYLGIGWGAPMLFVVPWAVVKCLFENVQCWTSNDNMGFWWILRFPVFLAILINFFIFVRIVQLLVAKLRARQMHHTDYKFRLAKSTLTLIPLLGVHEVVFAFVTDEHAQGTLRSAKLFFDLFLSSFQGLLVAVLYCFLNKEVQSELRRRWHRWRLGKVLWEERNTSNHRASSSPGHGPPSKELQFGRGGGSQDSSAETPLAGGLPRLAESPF

| Binder | cAMP release, % activity with respect to control, at 1 nM (human GLP-1 receptor) | cAMP release, % activity with respect to control, at 10 nM (human GLP-1 receptor) | cAMP release, % activity with respect to control, at 100 nM (human GLP-1 receptor) | cAMP release, % activity with respect to control, at 1 µM (human GLP-1 receptor) | cAMP release, % activity with respect to control, at 10 µM (human GLP-1 receptor) | cAMP production (pmol/ml/µg prt) with saturated glucagon peptide, at 1 nM (human glucagon receptor) | cAMP production (pmol/ml/µg prt) with saturated glucagon peptide, at 10 nM (human glucagon receptor) | cAMP production (pmol/ml/µg prt) with saturated glucagon peptide, at 100 nM (human glucagon receptor) | cAMP production (pmol/ml/µg prt) with saturated glucagon peptide, at 1 µM (human glucagon receptor) | cAMP production (pmol/ml/µg prt) with saturated glucagon peptide, at 10 µM (human glucagon receptor) |
| --- | --- | --- | --- | --- | --- | --- | --- | --- | --- | --- |
| VH[αMeP]QGT[αMePhe(2,6-F2)]TS[αMeD][αMeBip(OMe)][hhPhe] (not fully specified (C-terminus)) [Seq. ID. No. 76] | 66 % of control | 97 % of control | 99 % of control | 99 % of control | 99 % of control | – | – | – | – | – |
| B1 | 38 % of control | 77 % of control | 85 % of control | 94 % of control | 97 % of control | – | – | – | – | – |
| VH[Aib]EGT[αMePhe(2-F)]TSD[αMeBip(OMe)][hhPhe]-NH2 [Seq. ID. No. 23] | – | – | – | – | – | 10 pmol/ml/µg prt | 8 pmol/ml/µg prt | 6 pmol/ml/µg prt | 2 pmol/ml/µg prt | 0 pmol/ml/µg prt |
| VH[αMeP]QGT[αMePhe(2-F)]TS[αMeD][αMeBip(OMe)][hhPhe]-NH2 [Seq. ID. No. 68] | 40 % of control | 81 % of control | 87 % of control | 95 % of control | 98 % of control | – | – | – | – | – |
| B2 | 40 % of control | 81 % of control | 87 % of control | 95 % of control | 98 % of control | – | – | – | – | – |
| VH[Aib]EGTFTS[αMeD][αMeBip(OMe)][hhPhe]-NH2 [Seq. ID. No. 63] | – | – | – | – | – | 20 pmol/ml/µg prt | 18 pmol/ml/µg prt | 16 pmol/ml/µg prt | 14 pmol/ml/µg prt | 12 pmol/ml/µg prt |
| B3 | – | – | – | – | – | 6 pmol/ml/µg prt | 5 pmol/ml/µg prt | 2 pmol/ml/µg prt | 0 pmol/ml/µg prt | 0 pmol/ml/µg prt |
| VH[αMeP]QGT[αMePhe(2-F)]T[αMeS]D[αMeBip(OMe)][hhPhe]-NH2 [Seq. ID. No. 44] | – | – | – | – | – | 5 pmol/ml/µg prt | 3 pmol/ml/µg prt | 0 pmol/ml/µg prt | 0 pmol/ml/µg prt | 0 pmol/ml/µg prt |
| VHAQGT[αMePhe(2,6-F2)]TSD[αMeBip(OMe)][hhPhe]-NH2 [Seq. ID. No. 26] | 99 % of control | 99 % of control | 99 % of control | 99 % of control | 99 % of control | – | – | – | – | – |
| B4 | – | – | – | – | – | 15 pmol/ml/µg prt | 12 pmol/ml/µg prt | 8 pmol/ml/µg prt | 4 pmol/ml/µg prt | 2 pmol/ml/µg prt |
| VH[Aib]EGT[αMePhe(2-F)]T[αMeS]D[αMeBip(OMe)][hhPhe]-NH2 [Seq. ID. No. 47] | – | – | – | – | – | 9 pmol/ml/µg prt | 6 pmol/ml/µg prt | 5 pmol/ml/µg prt | 3 pmol/ml/µg prt | 0 pmol/ml/µg prt |
| VHAEGT[αMePhe(2,6-F2)]TSD[αMeBip(OMe)][hhPhe]-NH2 [Seq. ID. No. 30] | – | – | – | – | – | 5 pmol/ml/µg prt | 3 pmol/ml/µg prt | 0 pmol/ml/µg prt | 0 pmol/ml/µg prt | 0 pmol/ml/µg prt |
| VHSQGT[αMePhe(2,6-F2)]T[αMeS]D[αMeBip(OMe)][hhPhe]-NH2 [Seq. ID. No. 49] | 38 % of control | 78 % of control | 86 % of control | 95 % of control | 98 % of control | – | – | – | – | – |
| VH[Aib]QGTFTS[αMeD][αMeBip(OMe)][hhPhe]-NH2 [Seq. ID. No. 59] | 39 % of control | 80 % of control | 88 % of control | 96 % of control | 99 % of control | – | – | – | – | – |
| VH[Aib]EGTFT[αMeS]D[αMeBip(OMe)][hhPhe]-NH2 [Seq. ID. No. 39] | – | – | – | – | – | 17 pmol/ml/µg prt | 15 pmol/ml/µg prt | 12 pmol/ml/µg prt | 8 pmol/ml/µg prt | 6 pmol/ml/µg prt |
| VH[Aib]EGT[αMePhe(2,6-F2)]TS[αMeD][αMeBip(OMe)][hhPhe] (not fully specified (C-terminus)) [Seq. ID. No. 79] | 69 % of control | 98 % of control | 99 % of control | 99 % of control | 99 % of control | – | – | – | – | – |
| VH[αMeP]EGTFTS[αMeD][αMeBip(OMe)][hhPhe]-NH2 [Seq. ID. No. 64] | 45 % of control | 84 % of control | 90 % of control | 99 % of control | 99 % of control | – | – | – | – | – |
| B5 | – | – | – | – | – | 20 pmol/ml/µg prt | 18 pmol/ml/µg prt | 16 pmol/ml/µg prt | 14 pmol/ml/µg prt | 12 pmol/ml/µg prt |
| VHAQGTFT[αMeS]D[αMeBip(OMe)][hhPhe]-NH2 [Seq. ID. No. 34] | 99 % of control | 99 % of control | 99 % of control | 99 % of control | 99 % of control | – | – | – | – | – |
